Nine substances from paper PMC3655264, “A Large-Scale Conformational Change Couples Membrane Recruitment to Cargo Binding in the AP2 Clathrin Adaptor Complex” (Cell, 2010) can be followed below.

Experiment [1] concerns the target fluorescein-labeled TGN38 YxxΦ peptide (ASDYQRL). As to the kind of experiment: fluorescence polarisation; equilibrium anisotropy titration with 500 μM polymeric heparin (~50 subunits); 20 nM fluorescein peptide; 21°C; 10 mM Tris pH 8.7, 250 mM NaCl. For orientation: Polarisation of emitted light reports the rotation of a fluorescent probe.
Experiment [2] has the same target. As to the kind of experiment: fluorescence polarisation; stopped-flow polarized fluorescence, pre-steady-state kinetics, without heparin; 1 μM fluorescein peptide, protein at pseudo-first order excess; single exponential fits, kapp = koff + kon.C.
The target is the same in experiment [3]. In words: fluorescence polarisation; stopped-flow polarized fluorescence, pre-steady-state kinetics; AP2 preincubated for 30 min with 200 μM heparin; 1 μM fluorescein peptide.
Experiment [4] addresses lipid-linked TGN38 sorting motif peptide (…) displayed in liposomes. As to the kind of experiment: SPR. The settings on record: for Kd: 10% PtdIns4,5P2 + 1% TGN38 liposomes, five AP2 concentrations ranging from 50 nM to 1 μM.
Experiment [5] has as its target liposomes displaying both TGN38 YxxΦ peptide (m4) and CD4 dileucine peptide (m5). As to the kind of experiment: SPR. The settings on record: 10% PtdIns4,5P2 + 0.5% TGN38 + 0.5% CD4 liposomes; five AP2 concentrations ranging from 50 nM to 1 μM.
The target of experiment [6] is lipid-linked phosphorylated CD4 dileucine sorting signal peptide (…(SP)…) displayed in liposomes. As to the kind of experiment: SPR. Conditions: for Kd: 10% PtdIns4,5P2 + 1% CD4P liposomes, five AP2 concentrations ranging from 50 nM to 1 μM.
In experiment [7] the target is liposomes containing 10% PtdIns4,5P2 (no cargo peptide). In words: SPR. Conditions: 10% PtdIns4,5P2 liposomes; five AP2 concentrations ranging from 50 nM to 1 μM.
The target of experiment [8] is lipid-linked TGN38 sorting motif peptide (…) displayed in liposomes. In words: not stated; unpublished data (S.H.); binding of AP2 cores to YxxΦ/PtdIns4,5P2-containing liposomes.
Experiment [9] shares this target. In words: SPR; peptido-liposomes with 10% PtdIns4,5P2 and lipid-linked peptide captured on an L1 sensor surface (BIAcore 3000, T100); AP2 cores injected; 10 mM Tris pH 8.7, 250 mM NaCl, 1 mM DTT; corrected for binding to PC/PE or PtdIns4,5P2 liposomes; apparent. On the technique in general: Surface plasmon resonance follows binding to a sensor surface in real time, without labels.

Experiment [10] concerns the target lipid-linked phosphorylated CD4 dileucine sorting signal peptide (…(SP)…) displayed in liposomes. Described as above.
Target sequence in this assay (peptide, as listed by the source): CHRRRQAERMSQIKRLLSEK

Some results are limits rather than exact numbers.

AP2 core (recombinant; α trunk, β2 trunk, myc-tagged μ2, σ2) (from UniProt P63010;P84092;P62743) μ2PIP- (μ2 5K>E and μ2 KRR>E combined; individual residues not printed), sequence (P62743 whole entry, looked up, change not shown): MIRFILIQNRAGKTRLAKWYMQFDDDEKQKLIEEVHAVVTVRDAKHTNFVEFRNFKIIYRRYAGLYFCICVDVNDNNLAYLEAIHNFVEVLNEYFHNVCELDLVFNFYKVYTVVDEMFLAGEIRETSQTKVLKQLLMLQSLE
AP2 core (recombinant; α trunk, β2 trunk, myc-tagged μ2, σ2) (from UniProt P63010;P84092;P62743) μ2PIP- (μ2 5K>E and μ2 KRR>E combined; individual residues not printed), sequence (P84092 whole entry, looked up, change not shown): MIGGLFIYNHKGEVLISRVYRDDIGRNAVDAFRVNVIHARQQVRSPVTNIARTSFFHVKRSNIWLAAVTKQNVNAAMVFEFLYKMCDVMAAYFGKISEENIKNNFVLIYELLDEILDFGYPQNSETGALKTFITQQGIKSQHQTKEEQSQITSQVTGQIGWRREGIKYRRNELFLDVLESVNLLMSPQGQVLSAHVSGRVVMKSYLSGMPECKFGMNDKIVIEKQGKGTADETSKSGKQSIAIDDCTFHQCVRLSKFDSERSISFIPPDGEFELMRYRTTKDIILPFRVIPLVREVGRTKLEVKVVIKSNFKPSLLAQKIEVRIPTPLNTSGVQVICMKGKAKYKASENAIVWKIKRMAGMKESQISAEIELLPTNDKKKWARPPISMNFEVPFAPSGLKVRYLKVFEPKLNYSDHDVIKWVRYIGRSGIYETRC
AP2 core (recombinant; α trunk, β2 trunk, myc-tagged μ2, σ2) (from UniProt P63010;P84092;P62743) μ2PIP- (μ2 5K>E and μ2 KRR>E combined; individual residues not printed), sequence (P63010 whole entry, looked up, change not shown): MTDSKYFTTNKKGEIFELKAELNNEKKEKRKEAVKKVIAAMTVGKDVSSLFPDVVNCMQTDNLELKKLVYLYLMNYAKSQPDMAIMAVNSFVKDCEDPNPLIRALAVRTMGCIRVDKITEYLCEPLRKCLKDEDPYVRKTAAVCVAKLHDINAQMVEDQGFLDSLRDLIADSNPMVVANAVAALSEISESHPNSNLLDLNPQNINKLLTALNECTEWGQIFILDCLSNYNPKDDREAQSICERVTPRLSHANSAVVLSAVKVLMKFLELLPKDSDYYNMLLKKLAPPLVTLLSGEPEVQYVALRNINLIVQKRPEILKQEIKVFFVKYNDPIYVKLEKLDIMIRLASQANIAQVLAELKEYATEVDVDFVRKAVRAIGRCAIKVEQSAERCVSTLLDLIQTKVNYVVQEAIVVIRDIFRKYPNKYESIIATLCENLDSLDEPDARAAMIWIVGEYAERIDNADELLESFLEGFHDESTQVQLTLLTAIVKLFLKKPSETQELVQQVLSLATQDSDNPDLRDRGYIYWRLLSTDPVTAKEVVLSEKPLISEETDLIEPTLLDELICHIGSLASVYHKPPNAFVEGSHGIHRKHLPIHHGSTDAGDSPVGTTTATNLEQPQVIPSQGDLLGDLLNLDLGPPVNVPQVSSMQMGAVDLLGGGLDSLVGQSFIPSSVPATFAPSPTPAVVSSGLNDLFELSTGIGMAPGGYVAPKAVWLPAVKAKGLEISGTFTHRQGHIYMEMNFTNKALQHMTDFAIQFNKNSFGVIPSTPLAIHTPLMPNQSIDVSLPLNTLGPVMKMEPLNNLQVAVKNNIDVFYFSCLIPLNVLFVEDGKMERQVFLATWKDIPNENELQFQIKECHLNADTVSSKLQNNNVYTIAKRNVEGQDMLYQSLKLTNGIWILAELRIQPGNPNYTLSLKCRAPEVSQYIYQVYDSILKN
AP2 core (recombinant; α trunk, β2 trunk, myc-tagged μ2, σ2) (from UniProt P63010;P84092;P62743) αPIP- (substitutions in the PtdIns4,5P2-binding site of α; not printed), sequence (P62743 whole entry, looked up, stated change not applied): as the sequence (P62743 whole entry, looked up, change not shown) above
AP2 core (recombinant; α trunk, β2 trunk, myc-tagged μ2, σ2) (from UniProt P63010;P84092;P62743) αPIP- (substitutions in the PtdIns4,5P2-binding site of α; not printed), sequence (P84092 whole entry, looked up, stated change not applied): as the sequence (P84092 whole entry, looked up, change not shown) above
AP2 core (recombinant; α trunk, β2 trunk, myc-tagged μ2, σ2) (from UniProt P63010;P84092;P62743) αPIP- (substitutions in the PtdIns4,5P2-binding site of α; not printed), sequence (P63010 whole entry, looked up, stated change not applied): as the sequence (P63010 whole entry, looked up, change not shown) above
μ2^PIP-Core (AP2 core with the μ2 mutations 5K>E and KRR>E combined), sequence (P62743 whole entry, looked up, change not shown): as the sequence (P62743 whole entry, looked up, change not shown) above
μ2^PIP-Core (AP2 core with the μ2 mutations 5K>E and KRR>E combined), sequence (P84092 whole entry, looked up, change not shown): as the sequence (P84092 whole entry, looked up, change not shown) above
μ2^PIP-Core (AP2 core with the μ2 mutations 5K>E and KRR>E combined), sequence (P63010 whole entry, looked up, change not shown): as the sequence (P63010 whole entry, looked up, change not shown) above
AP2 core (recombinant; α trunk, β2 trunk, myc-tagged μ2, σ2) (from UniProt P63010;P84092;P62743) β2:K5E; β2:K12E; β2:K26E; β2:K27E; β2:K29E; β2:K36E, sequence (P62743 whole entry, looked up, stated change not applied): as the sequence (P62743 whole entry, looked up, change not shown) above
AP2 core (recombinant; α trunk, β2 trunk, myc-tagged μ2, σ2) (from UniProt P63010;P84092;P62743) β2:K5E; β2:K12E; β2:K26E; β2:K27E; β2:K29E; β2:K36E, sequence (P84092 whole entry, looked up, stated change not applied): as the sequence (P84092 whole entry, looked up, change not shown) above
AP2 core (recombinant; α trunk, β2 trunk, myc-tagged μ2, σ2) (from UniProt P63010;P84092;P62743) β2:K5E; β2:K12E; β2:K26E; β2:K27E; β2:K29E; β2:K36E, sequence (P63010 whole entry, looked up, stated change not applied): as the sequence (P63010 whole entry, looked up, change not shown) above

Regarding “AP2 core (recombinant; α trunk, β2 trunk, myc-tagged μ2, σ2) (from UniProt P63010 1-592; P84092 1-236; P84092 237-435; P62743 1-142) (complex)”, in experiment [1], the Kd stood at 3.4 µM. Besides, in experiment [2], the Kd stood at 4000 µM and the relaxation time at 30 μM AP2 without heparin was found to be 62.5 s. Also, in experiment [3], the Kd turned out to be 3.5 µM, the koff was determined as 2 s⁻¹, the kon was 1e+06 M⁻¹ s⁻¹ and the relaxation time at 15 μM AP2 with heparin turned out to be 0.059 s. Moreover, in experiment [3], the relaxation time with heparin turned out to be 0.056 s.
“AP2 core (recombinant; α trunk, β2 trunk, myc-tagged μ2, σ2) (from UniProt P63010;P84092;P62743) αPIP- (substitutions in the PtdIns4,5P2-binding site of α; not printed)”: the response in [4] (200 nM AP2 core, PtdIns4,5P2/TGN38 liposomes, corrected for non-specific binding to PC/PE liposomes, baseline about 80 RU, parent: est. 1800, read off a plot) is 330 RU; in [6] (200 nM AP2 core, PtdIns4,5P2/CD4P liposomes, corrected for non-specific binding to PC/PE liposomes, baseline about 40 RU, parent: est. 1400, read off a plot) it was 180 RU. The Kd in [4] and in experiment [5] was > 30 µM throughout.
Regarding “AP2 core (recombinant; α trunk, β2 trunk, myc-tagged μ2, σ2) (from UniProt P63010;P84092;P62743) β2:K5E; β2:K12E; β2:K26E; β2:K27E; β2:K29E; β2:K36E”, in experiment [5], the Kd is > 30 µM.
As to “AP2 core (recombinant; α trunk, β2 trunk, myc-tagged μ2, σ2) (from UniProt P63010;P84092;P62743) μ2 5K>E (five lysines of the second basic region of C-μ2 to glutamate; residues not printed)”, the Kd is 0.52 µM in experiment [4], 11 µM in [7] and 0.95 µM in [6].
Regarding “AP2 core (recombinant; α trunk, β2 trunk, myc-tagged μ2, σ2) (from UniProt P63010;P84092;P62743) μ2 KRR>E (three basic residues of the third basic region of C-μ2 to glutamate; residues not printed)”, the Kd in experiment [4] was determined as 0.33 µM; in experiment [7], 7.5 µM; in experiment [6], 0.85 µM.
In the case of “AP2 core (recombinant; α trunk, β2 trunk, myc-tagged μ2, σ2) (from UniProt P63010;P84092;P62743) μ2PIP- (μ2 5K>E and μ2 KRR>E combined; individual residues not printed)”, the Kd in experiment [4] is 6.2 µM; in experiment [5], 0.28 µM; in experiment [7], 30 µM; in experiment [6], 2.5 µM.
Take “isolated C-terminal domain of μ2 (C-μ2) (from UniProt P84092 1-435) (domain or fragment)”: in [2], the Kd amounted to 0.5 µM and the relaxation time at 15 μM C-μ2 was 0.0073 s.
In [8], “μ2Thr156Glu AP2 core (from UniProt P63010 1-592; P84092 1-236; P84092 237-435; P62743 1-142) (complex)” displayed a fold less binding than phosphorylated AP2 core of 20 fold and a fold weaker binding than wild-type core of 4 fold.
On to “μ2^PIP-Core (AP2 core with the μ2 mutations 5K>E and KRR>E combined) (from UniProt P63010 1-592; P84092 1-236; P84092 237-435; P62743 1-142) (complex)”, for which, in [9], the fold inhibition of binding to PtdIns4,5P2/YxxΦ liposomes against the wild-type core is 20 fold. In addition, in experiment [10], the fold reduction of binding to PtdIns4,5P2/[ED]xxxL[LI] liposomes against the wild-type core is 3 fold.

In general, Kd refers to the constant that tells how readily two partners part at equilibrium. In general, koff refers to a measure of how fast the partners let go of each other. A low value points to a long-lived complex. The term kon denotes the second-order rate constant of association. Lower therefore signals slower complex formation.
